# From the RNAGym collection of RNA variant scans (doi:10.7554/elife.80360)
# B1: Hairpin Ribozyme (parent)
# chain: GUCCUCUUUCACGUGCGCGUGAAAGAGAGAAGUGAACCAGAGAAACACACGUUGUGGUAUAUUACCUGGUA
# Variants of: B1
# Experiment: self-cleavage, relative activity (ratio to wild type); higher = more cleavage; co-transcriptional
row,Variant,self-cleavage
1,A23G G42C,0.33
2,A23C C66U,0.448
3,A23C C66A,0.218
4,A23G G56U,0.162
5,A23G G56C,0.145
6,A24U A49G,0.533
7,A23C A35G,0.942
8,A23U A28G,0.956
9,A23G G68A,0.311
10,A23G G68C,0.101
11,A23G G68U,0.198
12,A24G A39G,0.308
13,A23U C66G,0.222
14,A23U C66U,0.545
15,A23G G69C,0.303
16,A23C A24G,0.85
17,A23C A24C,0.718
18,A24U A44U,0.123
19,A24U G51A,0.751
20,A24U G51U,0.78
21,A24C A43U,0.115
22,A23U A45U,0.2
23,A24G G69U,0.13
24,A23U A49U,0.193

row,Variant,self-cleavage
1,A23G G34C,1.07
2,A24G A44G,0.152
3,A24G A47C,0.245
4,A24G A47G,0.191
5,A24G U33G,0.0457
6,A24G U33C,0.125
7,A24U G54C,0.423
8,A24U G54A,0.472
9,A24U C48A,0.0466
10,A24C C37G,0.242
11,A24C C37U,0.455
12,A24U G29A,0.146
13,A24U G29U,0.0631
14,A24U A71G,1.11
15,A23G U52G,0.78
16,A23G U55G,0.192
17,A23C A36C,0.286
18,A23C A36U,0.475
19,A23C C38U,0.398
20,A23C C38A,0.161
21,A23G G32U,0.0923
22,A23G G32C,0.163
23,A23G G51C,0.91
24,A23G G51A,0.781

row,Variant,self-cleavage
1,A24U G56U,0.232
2,A22U G42A,0.264
3,G25A A39C,0.374
4,A24G A43G,0.132
5,A23U U63C,0.182
6,A23U U63A,0.142
7,A23G G27C,0.149
8,A24G A28U,0.475
9,A24G A28C,0.338
10,A24U C65U,0.39
11,A24U C65A,0.734
12,A23U A24U,0.737
13,A23G U53C,0.995
14,A23C U67C,0.249
15,A23C U67A,0.211
16,A24C U52G,1.08
17,A24C U52A,1.05
18,A23G A59C,0.0706
19,G25A C66A,0.15
20,A24U C38U,0.471
21,A24U C38G,0.135
22,G25A C38U,0.283
23,A22U C48A,0.16
24,A24U U53G,0.674

row,Variant,self-cleavage
1,A23U C38A,0.17
2,A23U C38G,0.167
3,A24C A39U,0.573
4,A24C A45C,0.235
5,A24C A45G,0.171
6,A24G A64U,0.135
7,G25A C46A,0.105
8,A23G G54C,0.363
9,A23G G54U,0.586
10,A23U A71C,1.28
11,A24G G51A,0.745
12,A24G G51U,0.881
13,G25A A30C,0.087
14,A24G G27A,0.401
15,A23G U67G,0.18
16,A24C G25U,0.388
17,A23C G57A,0.196
18,A22U U33A,0.172
19,A24C A44U,0.17
20,A23C C65U,0.282
21,A23C C65A,0.818
22,A24G U63C,0.0931
23,A23C G25A,0.235
24,A23C A31U,0.179

row,Variant,self-cleavage
1,A23C A31C,0.185
2,A24G A35U,0.645
3,A24G A35C,0.82
4,A24G A35G,0.797
5,A23G A30G,0.211
6,A24G U70C,0.913
7,A24C A71G,0.99
8,A23U G68A,0.184
9,A23U G68C,0.139
10,A24C U55A,0.267
11,A24C U55C,0.305
12,A23C A44G,0.056
13,A23C A44U,0.129
14,A24U U67C,0.207
15,A24U U67G,0.231
16,A23G A43C,0.169
17,A23G G29A,0.0583
18,A23G G29C,0.123
19,G25A A45C,0.109
20,A24G G29A,0.11
21,A23C,0.822
22,A23G,0.851
23,A23U,0.852
24,A23U G34A,0.956

row,Variant,self-cleavage
1,A23G U33C,0.0496
2,A23C G56A,0.187
3,A23G A44C,0.0975
4,A23G C50G,0.153
5,G25A C65U,0.215
6,A22U C37A,0.352
7,A22U C37U,0.443
8,A24G A59G,0.272
9,A23U A43G,0.204
10,G25A C50A,0.107
11,A23G A31G,0.416
12,A24G C50A,0.187
13,A23G U62G,0.0705
14,A23G U62C,0.43
15,A24U U55G,0.242
16,A24U U55A,0.186
17,A24U U55C,0.11
18,A22U C50A,0.211
19,A22U C50U,0.342
20,A23C U60G,0.61
21,A23U U60G,0.569
22,A23U U60C,0.749
23,A24U A31G,0.392
24,A24U A31U,0.0897

row,Variant,self-cleavage
1,A22U A71C,1.37
2,A23U A44C,0.133
3,A23U G29A,0.145
4,A24C G69U,0.188
5,A23U C37U,0.594
6,A24C A28C,0.349
7,A23U A36G,0.681
8,A23U A36U,0.491
9,A22U G29A,0.13
10,A23G A41C,1.19
11,A23G A41U,1.09
12,G25A G27U,0.177
13,A24G G57C,0.118
14,A24G G57A,0.228
15,A24C U62G,0.199
16,A24C U53G,0.733
17,A24U U63C,0.233
18,A24C A47C,0.272
19,A24C A47G,0.113
20,A24U A28G,0.731
21,A24U A28U,0.521
22,A23C U33C,0.307
23,A23C U33G,0.171
